Common to all, as to assay: cell-based or functional assay
Test [1] concerns the target HLA-DQ2.5 on IHW09023 cells loaded with 33mer gliadin peptide (human; wheat).
Test [2] has as its target HLA-DQ2.5 on IHW09023 cells loaded with BC hordein peptide (human; barley).
The target of test [3] is HLA-DQ2.5 on IHW09023 cells loaded with gamma 1 gliadin peptide (human; wheat).
For test [4], the target named is HLA-DQ2.5 on IHW09023 cells loaded with gamma 2 gliadin peptide (human; wheat).
The target in test [5] is HLA-DQ2.5 on IHW09023 cells loaded with gamma 3 gliadin peptide (human; wheat).
Test [6] addresses HLA-DQ2.5 on IHW09023 cells loaded with gamma 4a gliadin peptide (human; wheat).
Test [7] has as its target HLA-DQ2.5 on IHW09023 cells loaded with gamma 4d gliadin peptide (human; wheat).
Test [8] concerns the target HLA-DQ2.5 on IHW09023 cells loaded with omega1/2 gliadin peptide (human; wheat).

The text below walks through data of patent US20240400693A1.

B1: DQN034425 (antibody, V domains shown)
VH: QVQLVESGGGVVQPGRSLRLSCAASGFTFSSSYWMCWVRQAPGQGLEWMGCVYGGSDTTYYASWTKGRFTISRDNSKNTLYLQMNSLRAEDTAVYYCARDPLNYYYYGELNLWGQGTLVTVSS
VL: DIQMTQSPSSLSASVGDRVTITCQATENIYSGLAWYQQKPGKAPKLLIYYVSTLASGIPARFSGSGSGTDFTLTISSLEPEDFAVYYCQTYHDISNVTFGQGTKVEIK
As to B1, in test [1], the IC50 (ng/mL), α1a gliadin TCR, 250 nM 33mer gliadin was 10.6 ng/mL; the IC50 (ng/mL), α1b gliadin TCR, 250 nM 33mer gliadin worked out at 46.4 ng/mL; the IC50 (ng/mL), α2 gliadin TCR, 250 nM 33mer gliadin is 1.75 ng/mL. In test [2], this molecule had an IC50 (ng/mL), BC hordein TCR, 250 nM BC hordein above 20000 ng/mL. Also, the IC50 (ng/mL), γ1 gliadin TCR, 250 nM γ1 gliadin in test [3] is above 20000 ng/mL. For the same molecule, in test [4], the IC50 (ng/mL), γ2 gliadin TCR, 250 nM γ2 gliadin is above 20000 ng/mL. The IC50 (ng/mL), γ3 gliadin TCR, 100 µM γ3 gliadin in test [5] amounted to 3100 ng/mL. The IC50 (ng/mL), γ4a gliadin TCR, 25 µM γ4a gliadin in test [6] is above 20000 ng/mL. The molecule also came in with an IC50 (ng/mL), γ4d gliadin TCR, 100 µM γ4d gliadin in test [7] above 20000 ng/mL. In test [8], this molecule had an IC50 (ng/mL), ω1 gliadin TCR, 25 µM ω1/2 gliadin of 3.12 ng/mL and an IC50 (ng/mL), ω2 gliadin TCR, 250 nM ω1/2 gliadin above 500 ng/mL.
